Several values for one entry are separate records, joined by “and”; a condition that tells them apart may be missing. Equal entries are not always repeated.
Experiments:
cholera toxin CT = cholera toxin CT (Vibrio cholerae, UniProt P01556); format: cell-based
enterotoxin CFA/I(LT-1) = enterotoxin CFA/I(LT-1) (Escherichia coli, UniProt D0Z6T1); format: cell-based, E. coli
enterotoxin LT-I = system: enterotoxin LT-I; design: species or system E. coli; settings: in vivo, po
[1] = molecular target: enterotoxin CFA/II(LT-II) (Escherichia coli, UniProt P0CK94); format: cell-based, E. coli
cholera toxin B-subunits = cholera toxin B-subunits (Vibrio cholerae, UniProt P01556); format: binding

B1: lactoferrin (protein, UniProt P24627 20-708, looked up)
Lactotransferrin: APRKNVRWCTISQPEWFKCRRWQWRMKKLGAPSITCVRRAFALECIRAIAEKKADAVTLDGGMVFEAGRDPYKLRPVAAEIYGTKESPQTHYYAVAVVKKGSNFQLDQLQGRKSCHTGLGRSAGWIIPMGILRPYLSWTESLEPLQGAVAKFFSASCVPCIDRQAYPNLCQLCKGEGENQCACSSREPYFGYSGAFKCLQDGAGDVAFVKETTVFENLPEKADRDQYELLCLNNSRAPVDAFKECHLAQVPSHAVVARSVDGKEDLIWKLLSKAQEKFGKNKSRSFQLFGSPPGQRDLLFKDSALGFLRIPSKVDSALYLGSRYLTTLKNLRETAEEVKARYTRVVWCAVGPEEQKKCQQWSQQSGQNVTCATASTTDDCIVLVLKGEADALNLDGGYIYTAGKCGLVPVLAENRKSSKHSSLDCVLRPTEGYLAVAVVKKANEGLTWNSLKDKKSCHTAVDRTAGWNIPMGLIVNQTGSCAFDEFFSQSCAPGADPKSRLCALCAGDDQGLDKCVPNSKEKYYGYTGAFRCLAEDVGDVAFVKNDTVWENTNGESTADWAKNLNREDFRLLCLDGTRKPVTEAQSCHLAVAPNHAVVSRSDRAAHVKQVLLHQQALFGKNGKNCPDKFCLFKSETKNLLFNDNTECLAKLGGRPTYEEYLGTEYVTAIANLKKCSTSPLLEACAFLTR
Cholera toxin CT
  neutralization of the toxicity of CT against CHO-Kl cells (morphological alteration): neutralized the toxicity
Enterotoxin CFA/I(LT-1)
  neutralization of the toxicity of LT-I against CHO-Kl cells (morphological alteration): neutralized the toxicity
Enterotoxin LT-I
  Rate of diarrhea: 40% and 20%
[1]
  neutralization of the toxicity of LT-II against CHO-Kl cells (morphological alteration): neutralized the toxicity
Cholera toxin B-subunits
  interference with the binding of the cholera toxin B-subunits to GM1: interfered with the binding

— US5260280A (priority 1989, dated 1993)
